Results as given in patent US20240002497A1 (Merck Sharp & Dohme, published 2024).

B1: F0103PMP505D08 (bispecific antibody)
chain: EVQLVESGGGLVQPGGSLRLSCAASGSIFNINSMAWYRRAPGKQRELVASSTNGGSTNYADSVKGRFTISRDNAKRVYLQMNSLTPEDTAVYYCRALLQPSIYDISRTYWGQGTLVTVSSGGGGSGGGGSGGGGSGGGGSGGGGSGGGGSGGGGSGGGGSGGGGSGGGGSEVQLVESGGGLVQAGGSLRLSCVTSGRTSDLSTMNWFRQAPGKEREFVARITRRGSTYYAESVKERFIISRDNAKNTVYLQMNSLKPEDTANYYCTAASEMGYHYRGQGTQVTVSSAAADYKDHDGDYKDHDIDYKDDDDKGAAHHHHHHKAAGGGGG
notes: crude periplasmic extract; also called F103275B05(N93R)-50GS-F0103505D08 bivalent ISVD
B2: F0103PMP500E03 (bispecific antibody)
chain: EVQLVESGGGLVQPGGSLRLSCAASGSIFNINSMAWYRRAPGKQRELVASSTNGGSTNYADSVKGRFTISRDNAKRVYLQMNSLTPEDTAVYYCRALLQPSIYDISRTYWGQGTLVTVSSGGGGSGGGGSGGGGSGGGGSGGGGSGGGGSGGGGSGGGGSGGGGSGGGGSEVQLVESGGGLVQAGGSLRLSCAASGRTFSRYQMGWFRQAPGKEREFVAYISWSGSTRYVDSVKGRFTISRDNAKNTVYLQMNSLKPEDTAVYHCAAGTAGIISSRPETYDSWGQGTQVTVSSAAADYKDHDGDYKDHDIDYKDDDDKGAAHHHHHHKAA
notes: crude periplasmic extract; also called F103275B05(N93R)-50GS-F0103500E03 bivalent ISVD
B3: F0103464B09 (parental)-FLAG-HIS6 (VHH)
VHH: EVQLVESGGGLVQPGGSLRLSCATTSRAFIRDVFTGWYRRVPGKERELVARIYNGGNTNYADFAKGRFSISRDNAKKMVTLRMSNLKPEDTGVYYCLFSGTINTGREYRSGDYWGQGTLVTVSS
notes: also called F103464B09

Key:
huNav1.7α + β1-β2-β3 [1] = target: T1, huNav1.7α + β1-β2-β3 (human, UniProt Q15858 1-1988; A5A6L6 19-218; O60939 30-215; Q2KI11 23-215); experiment: FACS, CHO Flp-In, competitor 1 µM IRR00092
T1 construct: also called huNav1.7-beta1-beta2-beta3; huNav1.7-β1-β2-β3

rhNav1.7α + β1-β2-β3 [2] = target: T2, rhNav1.7α + β1-β2-β3 (rhesus monkey); experiment: FACS, CHO Flp-In, competitor 1 µM IRR00092
T2 construct: also called rhNav1.7-beta1-beta2-beta3; rhNav1.7-β1-β2-β3

huNav1.5-β1-β2-β3 [3] = target: T3, huNav1.5-β1-β2-β3 (human); experiment: FACS, CHO Flp-In, competitor 1 µM IRR00092
T3 construct: Whole entry; CHO Flp-In or HEK Flp-In cells; also called huNav1.5-beta1-beta2-beta3

huNav1.5-β1-β2-β3 [4] = target: T3, huNav1.5-β1-β2-β3; experiment: binding FACS, HEK Flp-In
huNav157chim14 = target: T4, huNav157chim14 (human); experiment: binding FACS, HEK Flp-In
T4 construct: HEK Flp-In cells; also called huNav157 chimera 14

huNav157chim14-β1-β2-β3 = target: T5, huNav157chim14-β1-β2-β3 (human); experiment: binding FACS, HEK Flp-In
T5 construct: Whole entry; HEK Flp-In cells; also called huNav157 chimera 14-beta1-beta2-beta3

huNav1.7α + β1-β2-β3 [5] = target: T1, huNav1.7α + β1-β2-β3; experiment: binding FACS, CHO Flp-In, periplasmic extract
huNav1.5-β1-β2-β3 [6] = target: T3, huNav1.5-β1-β2-β3; experiment: binding FACS, CHO Flp-In, periplasmic extract
rhNav1.7α + β1-β2-β3 [7] = target: T2, rhNav1.7α + β1-β2-β3; experiment: FACS, CHO Flp-In, competitor 1 µM F010300703
huNav1.5-β1-β2-β3 [8] = target: T3, huNav1.5-β1-β2-β3; experiment: FACS, CHO Flp-In, competitor 1 µM F010300703
huNav1.2α = target: T6, huNav1.2α (human, UniProt Q99250 1-2005); experiment: binding FACS on stable huNav1.x paralog HEK293T cell lines
T6 construct: also called huNav1.2 (alpha subunit)

huNav1.3α = target: T7, huNav1.3α (human, UniProt Q9NY46 1-2000); experiment: as above
T7 construct: also called huNav1.3 (alpha subunit)

huNav1.8α = target: T8, huNav1.8α (human, UniProt Q9Y5Y9 1-1956); experiment: as above
T8 construct: also called huNav1.8 (alpha subunit)

huNav1.4α = target: T9, huNav1.4α (human, UniProt P35499 1-1836); experiment: as above
T9 construct: also called huNav1.4 (alpha subunit)

huNav1.6α = target: T10, huNav1.6α (human, UniProt Q9UQD0 1-1980); experiment: as above
T10 construct: also called huNav1.6 (alpha subunit)

huNav1.1α = huNav1.1α (human, UniProt P35498 1-2009); experiment: as above
huNav1.5α = target: T11, huNav1.5α (human, UniProt Q14524 1-2016); experiment: as above
T11 construct: also called huNav1.5 (alpha subunit)

huNav1.7α+β1-β2-β3 = target: T12, huNav1.7α+β1-β2-β3 (human, UniProt Q15858 1-1988; Q07699 19-218; O60939 30-215; Q9NY72 23-215); experiment: binding FACS, CHO FlpIn cells
T12 construct: 5N11S variant; also called huNav1.7-beta1-beta2-beta3; huNav1.7α+Navβ1-Navβ2-Navβ3
Experimental: (§1) Binding of the ISVDs to cell-expressed Nav1.7α was detected via murine anti-Flag (Sigma, catalog #F1804). Briefly, cells were resuspended in FACS buffer (PBS, 10% FBS, NaN₃) and transferred to a 96-well V-bottom plate at 1×10^5 cells/well. Purified FLAG3-tagged ISVD was diluted in FACS buffer and added to the cells for 30 minutes at 4° C. […] Prior to the read-out, the samples were resuspended in 1 μg/mL propidium iodide (Sigma, catalog #P4170) to exclude dead cells. Between each step, the cells were centrifuged for 5 minutes at 200 grams and washed with 100 μL/well FACS buffer.
(§2) Crude periplasmic extracts containing ISVDs from phage display selections (as described above) were screened in FACS for binding to huNav1.7α but not to huNav1.5a. […] As used in Table 8, the drawings, and throughout the description, Navβ1, Navβ2, and Navβ3 are human homologs unless specifically identified otherwise.

rhNav1.7α+β1-β2-β3 = target: T13, rhNav1.7α+β1-β2-β3 (rhesus monkey α subunit with human β …); experiment: binding FACS, CHO FlpIn cells
T13 construct: P2A cleaves it into α, β1, β2, β3; also called rhNav1.7-beta1-beta2-beta3
Experimental: as §1, §2

[9] = target: T14, huNav157chimera14+β1-β2-β3 (human, UniProt Q07699 19-218; O60939 30-215; Q9NY72 23-215); experiment: binding FACS with purified FLAG3-HIS6 tagged ISVDs
T14 construct: HEK FlpIn line; also called huNav157 chimera 14-beta1-beta2-beta3; Nav157ch14-β1-β2-β3
Experimental: as §1, §2

huNav1.7α+β1 = target: T15, huNav1.7α+β1 (human, UniProt Q15858 1-1988; Q07699 19-218); experiment: binding FACS, HEK293 cells
T15 construct: also called huNav1.7-beta1; HEKa/β1
Experimental: as §1, §2

huNav1.5α+β1-β2-β3 = target: T16, huNav1.5α+β1-β2-β3 (human, UniProt Q14524 1-2016; A5A6L6 19-218; O60939 30-215; Q2KI11 23-215); experiment: binding FACS, HEK FlpIn cells
T16 construct: in the cell P2A cleaves it into α, β1, β2, β3; also called huNav1.5-beta1-beta2-beta3
Experimental: as §1, §2

T7 sequence (Q9NY46 whole entry): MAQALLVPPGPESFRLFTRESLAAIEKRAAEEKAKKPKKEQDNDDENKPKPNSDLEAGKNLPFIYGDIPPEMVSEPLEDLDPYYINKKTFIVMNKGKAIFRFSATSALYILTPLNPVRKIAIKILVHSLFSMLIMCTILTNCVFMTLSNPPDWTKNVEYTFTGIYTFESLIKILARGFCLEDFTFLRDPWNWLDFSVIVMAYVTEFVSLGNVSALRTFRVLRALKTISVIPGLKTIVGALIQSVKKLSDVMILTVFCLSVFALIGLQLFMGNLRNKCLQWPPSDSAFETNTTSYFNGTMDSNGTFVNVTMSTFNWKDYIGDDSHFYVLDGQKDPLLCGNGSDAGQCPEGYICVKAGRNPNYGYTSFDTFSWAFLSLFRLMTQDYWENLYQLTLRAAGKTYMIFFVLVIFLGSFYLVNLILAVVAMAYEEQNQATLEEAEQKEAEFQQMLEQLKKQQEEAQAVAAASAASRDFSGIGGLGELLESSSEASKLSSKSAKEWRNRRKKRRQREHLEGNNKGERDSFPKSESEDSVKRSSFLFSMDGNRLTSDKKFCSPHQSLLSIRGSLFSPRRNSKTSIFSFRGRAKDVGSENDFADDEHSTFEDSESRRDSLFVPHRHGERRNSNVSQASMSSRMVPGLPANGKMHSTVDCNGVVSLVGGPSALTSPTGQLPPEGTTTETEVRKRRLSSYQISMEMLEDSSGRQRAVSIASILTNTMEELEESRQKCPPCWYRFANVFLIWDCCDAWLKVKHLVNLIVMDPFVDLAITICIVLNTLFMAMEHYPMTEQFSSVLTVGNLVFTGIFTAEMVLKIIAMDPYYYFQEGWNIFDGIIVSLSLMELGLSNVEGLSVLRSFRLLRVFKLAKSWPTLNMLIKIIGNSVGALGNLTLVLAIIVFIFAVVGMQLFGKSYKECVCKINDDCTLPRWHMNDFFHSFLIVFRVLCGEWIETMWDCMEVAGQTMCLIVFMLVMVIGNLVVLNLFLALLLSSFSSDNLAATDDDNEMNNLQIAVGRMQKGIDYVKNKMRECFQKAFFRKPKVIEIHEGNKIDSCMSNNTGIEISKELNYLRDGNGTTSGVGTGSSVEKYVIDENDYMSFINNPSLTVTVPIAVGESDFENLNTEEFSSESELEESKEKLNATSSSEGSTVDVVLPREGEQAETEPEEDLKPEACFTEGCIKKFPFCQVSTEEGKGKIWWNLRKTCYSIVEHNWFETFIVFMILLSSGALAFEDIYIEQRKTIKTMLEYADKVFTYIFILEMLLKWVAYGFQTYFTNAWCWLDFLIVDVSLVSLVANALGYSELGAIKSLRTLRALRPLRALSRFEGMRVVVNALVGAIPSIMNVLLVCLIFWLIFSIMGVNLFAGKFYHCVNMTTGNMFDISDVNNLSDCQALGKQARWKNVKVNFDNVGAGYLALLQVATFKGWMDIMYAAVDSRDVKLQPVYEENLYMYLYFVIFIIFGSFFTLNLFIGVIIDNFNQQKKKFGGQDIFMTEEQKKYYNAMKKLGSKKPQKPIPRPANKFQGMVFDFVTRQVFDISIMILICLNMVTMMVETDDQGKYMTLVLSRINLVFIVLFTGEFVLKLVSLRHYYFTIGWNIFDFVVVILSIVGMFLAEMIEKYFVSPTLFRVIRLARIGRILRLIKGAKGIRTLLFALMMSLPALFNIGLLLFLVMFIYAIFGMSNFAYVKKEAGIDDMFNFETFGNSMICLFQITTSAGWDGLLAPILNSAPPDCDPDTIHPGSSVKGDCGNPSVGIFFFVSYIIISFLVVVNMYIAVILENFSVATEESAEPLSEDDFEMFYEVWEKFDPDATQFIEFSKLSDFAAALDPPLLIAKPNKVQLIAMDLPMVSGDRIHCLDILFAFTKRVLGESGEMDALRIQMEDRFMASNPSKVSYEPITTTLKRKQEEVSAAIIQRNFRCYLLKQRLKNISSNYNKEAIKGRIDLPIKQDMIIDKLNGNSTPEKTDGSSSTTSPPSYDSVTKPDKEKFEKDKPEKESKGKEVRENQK
T8 sequence (Q9Y5Y9 whole entry): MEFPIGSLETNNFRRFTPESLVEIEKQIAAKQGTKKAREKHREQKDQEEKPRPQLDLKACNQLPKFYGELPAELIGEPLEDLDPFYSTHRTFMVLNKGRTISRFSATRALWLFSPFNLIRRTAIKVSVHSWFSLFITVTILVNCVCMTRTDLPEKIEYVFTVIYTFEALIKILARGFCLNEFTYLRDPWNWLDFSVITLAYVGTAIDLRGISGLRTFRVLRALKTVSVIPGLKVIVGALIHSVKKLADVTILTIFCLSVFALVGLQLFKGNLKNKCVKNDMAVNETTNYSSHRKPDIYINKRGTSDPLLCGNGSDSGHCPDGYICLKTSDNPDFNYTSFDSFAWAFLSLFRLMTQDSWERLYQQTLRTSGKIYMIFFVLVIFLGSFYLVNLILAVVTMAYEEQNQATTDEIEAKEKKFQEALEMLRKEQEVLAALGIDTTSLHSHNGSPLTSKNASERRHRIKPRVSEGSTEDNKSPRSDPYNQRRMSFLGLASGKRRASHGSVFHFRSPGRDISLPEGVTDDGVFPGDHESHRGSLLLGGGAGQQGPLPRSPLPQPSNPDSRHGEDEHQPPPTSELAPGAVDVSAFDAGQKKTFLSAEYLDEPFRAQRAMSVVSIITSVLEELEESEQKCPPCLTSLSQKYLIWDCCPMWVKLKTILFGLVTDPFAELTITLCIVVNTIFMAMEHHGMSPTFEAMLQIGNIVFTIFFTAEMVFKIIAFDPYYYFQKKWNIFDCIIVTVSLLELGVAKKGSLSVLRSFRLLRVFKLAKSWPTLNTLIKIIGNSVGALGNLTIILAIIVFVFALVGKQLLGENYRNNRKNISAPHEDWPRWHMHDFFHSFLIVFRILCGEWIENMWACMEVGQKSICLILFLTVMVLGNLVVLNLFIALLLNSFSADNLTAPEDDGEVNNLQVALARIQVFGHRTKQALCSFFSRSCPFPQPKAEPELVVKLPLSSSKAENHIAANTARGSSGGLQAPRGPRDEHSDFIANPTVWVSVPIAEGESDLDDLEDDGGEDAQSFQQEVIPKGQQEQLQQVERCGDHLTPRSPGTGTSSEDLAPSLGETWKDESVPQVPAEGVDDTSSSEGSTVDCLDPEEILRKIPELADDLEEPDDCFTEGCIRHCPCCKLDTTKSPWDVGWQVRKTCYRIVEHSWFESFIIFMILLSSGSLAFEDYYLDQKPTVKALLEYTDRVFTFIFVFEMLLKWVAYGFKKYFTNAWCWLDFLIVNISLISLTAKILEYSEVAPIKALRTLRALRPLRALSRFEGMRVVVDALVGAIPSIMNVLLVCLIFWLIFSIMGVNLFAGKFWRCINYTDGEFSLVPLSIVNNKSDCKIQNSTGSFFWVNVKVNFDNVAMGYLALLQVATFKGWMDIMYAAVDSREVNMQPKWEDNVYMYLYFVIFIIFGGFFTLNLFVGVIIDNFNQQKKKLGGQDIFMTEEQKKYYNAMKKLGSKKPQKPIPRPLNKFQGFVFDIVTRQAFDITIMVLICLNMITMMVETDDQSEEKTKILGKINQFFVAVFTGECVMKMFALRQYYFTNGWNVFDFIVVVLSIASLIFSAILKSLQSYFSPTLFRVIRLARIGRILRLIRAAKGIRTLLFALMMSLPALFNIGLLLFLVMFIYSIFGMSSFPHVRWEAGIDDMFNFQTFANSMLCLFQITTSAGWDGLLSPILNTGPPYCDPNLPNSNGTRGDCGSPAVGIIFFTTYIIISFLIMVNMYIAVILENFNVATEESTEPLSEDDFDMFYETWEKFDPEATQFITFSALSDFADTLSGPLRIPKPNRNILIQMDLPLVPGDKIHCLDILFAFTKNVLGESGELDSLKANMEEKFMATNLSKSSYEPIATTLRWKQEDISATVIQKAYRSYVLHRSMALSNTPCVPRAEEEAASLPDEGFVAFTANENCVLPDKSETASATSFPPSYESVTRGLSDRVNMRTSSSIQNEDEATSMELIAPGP

Binder | MFI (huNav1.7α + β1-β2-β3 [1]) | MFI (rhNav1.7α + β1-β2-β3 [2]) | MFI (huNav1.5-β1-β2-β3 [3]) | MFI (huNav1.5-β1-β2-β3 [4]) | MFI (huNav157chim14) | MFI (huNav157chim14-β1-β2-β3) | MFI (huNav1.7α + β1-β2-β3 [5]) | MFI (huNav1.5-β1-β2-β3 [6]) | MFI (rhNav1.7α + β1-β2-β3 [7]) | MFI (huNav1.5-β1-β2-β3 [8]) | also measured
B1 | 95400 MFI | 108000 MFI | 964 MFI | 1200 MFI | 78400 MFI | 136000 MFI | 106000 MFI | 891 MFI | 22500 MFI | 845 MFI | 
B2 | 33700 MFI | 96900 MFI | 975 MFI | 1110 MFI | 47300 MFI | 87200 MFI | 22400 MFI | 521 MFI | 21500 MFI | 852 MFI | 
B3 |  |  |  |  |  |  |  |  |  |  | binding result (huNav1.2α): no binding; binding result (huNav1.3α): no binding; binding result (huNav1.8α): no binding; binding result (huNav1.4α): no binding; binding result (huNav1.6α): no binding; binding result (huNav1.1α): no binding; binding result (huNav1.5α): no binding; EC50 (huNav1.7α+β1-β2-β3): 4.1 nM; EC50 (rhNav1.7α+β1-β2-β3): 27 nM; binding result [9]: binds; EC50 (huNav1.7α+β1): 4.1 nM; binding result (huNav1.5α+β1-β2-β3): no binding
